B1: Protein LYRIC (Homo sapiens), Q86UE4 (parent)
chain: MAARSWQDELAQQAEEGSARLREMLSVGLGFLRTELGLDLGLEPKRYPGWVILVGTGALGLLLLFLLGYGWAAACAGARKKRRSPPRKREEAAAVPAAAPDDLALLKNLRSEEQKKKNRKKLSEKPKPNGRTVEVAEGEAVRTPQSVTAKQPPEIDKKNEKSKKNKKKSKSDAKAVQNSSRHDGKEVDEGAWETKISHREKRQQRKRDKVLTDSGSLDSTIPGIENTITVTTEQLTTASFPVGSKKNKGDSHLNVQVSNFKSGKGDSTLQVSSGLNENLTVNGGGWNEKSVKLSSQISAGEEKWNSVSPASAGKRKTEPSAWSQDTGDANTNGKDWGRSWSDRSIFSGIGSTAEPVSQSTTSDYQWDVSRNQPYIDDEWSGLNGLSSADPNSDWNAPAEEWGNWVDEERASLLKSQEPIPDDQKVSDDDKEKGEGALPTGKSKKKKKKKKKQGEDNSTAQDTEELEKEIREDLPVNTSKTRPKQEKAFSLKTISTSDPAEVLVKNSQPIKTLPPATSTEPSVILSKSDSDKSSSQVPPILQETDKSKSNTKQNSVPPSQTKSETSWESPKQIKKKKKARRET

Variants of: B1
Settings: with snd1_human SND1, Q7KZF4
Chain of snd1_human SND1, Q7KZF4 (Q7KZF4 whole entry): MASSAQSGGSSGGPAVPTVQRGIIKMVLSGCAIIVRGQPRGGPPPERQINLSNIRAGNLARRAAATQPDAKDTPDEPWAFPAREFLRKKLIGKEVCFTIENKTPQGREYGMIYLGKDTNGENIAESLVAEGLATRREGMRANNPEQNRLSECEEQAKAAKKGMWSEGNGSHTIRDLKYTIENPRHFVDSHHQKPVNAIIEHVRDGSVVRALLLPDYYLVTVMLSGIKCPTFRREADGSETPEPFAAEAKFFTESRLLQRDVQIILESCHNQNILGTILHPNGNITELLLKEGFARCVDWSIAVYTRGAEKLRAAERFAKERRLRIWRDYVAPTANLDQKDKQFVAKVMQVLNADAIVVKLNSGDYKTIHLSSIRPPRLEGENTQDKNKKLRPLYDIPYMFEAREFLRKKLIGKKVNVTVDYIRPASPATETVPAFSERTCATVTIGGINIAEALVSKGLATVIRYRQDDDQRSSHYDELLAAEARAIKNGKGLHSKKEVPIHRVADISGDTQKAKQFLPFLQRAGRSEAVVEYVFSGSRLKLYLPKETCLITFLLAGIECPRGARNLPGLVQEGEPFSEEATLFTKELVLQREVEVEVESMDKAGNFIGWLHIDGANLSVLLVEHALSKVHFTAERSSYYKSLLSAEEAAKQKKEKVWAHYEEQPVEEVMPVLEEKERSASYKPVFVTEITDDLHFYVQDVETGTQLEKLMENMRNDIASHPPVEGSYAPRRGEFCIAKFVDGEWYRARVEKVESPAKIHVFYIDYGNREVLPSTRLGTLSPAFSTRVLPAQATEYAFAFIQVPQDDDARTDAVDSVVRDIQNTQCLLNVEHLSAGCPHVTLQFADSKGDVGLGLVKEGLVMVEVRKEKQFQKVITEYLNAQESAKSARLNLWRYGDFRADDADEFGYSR

Variant | effect of a mutation on the interaction
MAARSWQDELAQQAEEGSARLREMLSVGLGFLRTELGLDLGLEPKRYPGWVILVGTGALGLLLLFLLGYGWAAACAGARKKRRSPPRKREEAAAVPAAAPDDLALLKNLRSEEQKKKNRKKLSEKPKPNGRTVEVAEGEAVRTPQSVTAKQPPEIDKKNEKSKKNKKKSKSDAKAVQNSSRHDGKEVDEGAWETKISHREKRQQRKRDKVLTDSGSLDSTIPGIENTITVTTEQLTTASFPVGSKKNKGDSHLNVQVSNFKSGKGDSTLQVSSGLNENLTVNGGGWNEKSVKLSSQISAGEEKWNSVSPASAGKRKTEPSAWSQDTGDANTNGKDWGRSWSDRSIFSGIGSTAEPVSQSTTSDYQWDVSRNQPYIDDEWSGLNGLSSADPNSDWNAPARRDGNWVDEERASLLKSQEPIPDDQKVSDDDKEKGEGALPTGKSKKKKKKKKKQGEDNSTAQDTEELEKEIREDLPVNTSKTRPKQEKAFSLKTISTSDPAEVLVKNSQPIKTLPPATSTEPSVILSKSDSDKSSSQVPPILQETDKSKSNTKQNSVPPSQTKSETSWESPKQIKKKKKARRET [E399R;E400R;W401D] | disrupting interaction strength
MAARSWQDELAQQAEEGSARLREMLSVGLGFLRTELGLDLGLEPKRYPGWVILVGTGALGLLLLFLLGYGWAAACAGARKKRRSPPRKREEAAAVPAAAPDDLALLKNLRSEEQKKKNRKKLSEKPKPNGRTVEVAEGEAVRTPQSVTAKQPPEIDKKNEKSKKNKKKSKSDAKAVQNSSRHDGKEVDEGAWETKISHREKRQQRKRDKVLTDSGSLDSTIPGIENTITVTTEQLTTASFPVGSKKNKGDSHLNVQVSNFKSGKGDSTLQVSSGLNENLTVNGGGWNEKSVKLSSQISAGEEKWNSVSPASAGKRKTEPSAWSQDTGDANTNGKDWGRSWSDRSIFSGIGSTAEPVSQSTTSDYQWDVSRNQPYIDDEWSGLNGLSSADPNSDWNAPAEEDGNWVDEERASLLKSQEPIPDDQKVSDDDKEKGEGALPTGKSKKKKKKKKKQGEDNSTAQDTEELEKEIREDLPVNTSKTRPKQEKAFSLKTISTSDPAEVLVKNSQPIKTLPPATSTEPSVILSKSDSDKSSSQVPPILQETDKSKSNTKQNSVPPSQTKSETSWESPKQIKKKKKARRET [W401D] | decreasing interaction strength

More lines, now with the values ahead:

effect of a mutation on the interaction | Variant
disrupting interaction strength | MAARSWQDELAQQAEEGSARLREMLSVGLGFLRTELGLDLGLEPKRYPGWVILVGTGALGLLLLFLLGYGWAAACAGARKKRRSPPRKREEAAAVPAAAPDDLALLKNLRSEEQKKKNRKKLSEKPKPNGRTVEVAEGEAVRTPQSVTAKQPPEIDKKNEKSKKNKKKSKSDAKAVQNSSRHDGKEVDEGAWETKISHREKRQQRKRDKVLTDSGSLDSTIPGIENTITVTTEQLTTASFPVGSKKNKGDSHLNVQVSNFKSGKGDSTLQVSSGLNENLTVNGGGWNEKSVKLSSQISAGEEKWNSVSPASAGKRKTEPSAWSQDTGDANTNGKDWGRSWSDRSIFSGIGSTAEPVSQSTTSDYQWDVSRNQPYIDDEWSGLNGLSSARPNSRDNAPAEEWGNWVDEERASLLKSQEPIPDDQKVSDDDKEKGEGALPTGKSKKKKKKKKKQGEDNSTAQDTEELEKEIREDLPVNTSKTRPKQEKAFSLKTISTSDPAEVLVKNSQPIKTLPPATSTEPSVILSKSDSDKSSSQVPPILQETDKSKSNTKQNSVPPSQTKSETSWESPKQIKKKKKARRET [D389R;D393R;W394D]
disrupting interaction strength | MAARSWQDELAQQAEEGSARLREMLSVGLGFLRTELGLDLGLEPKRYPGWVILVGTGALGLLLLFLLGYGWAAACAGARKKRRSPPRKREEAAAVPAAAPDDLALLKNLRSEEQKKKNRKKLSEKPKPNGRTVEVAEGEAVRTPQSVTAKQPPEIDKKNEKSKKNKKKSKSDAKAVQNSSRHDGKEVDEGAWETKISHREKRQQRKRDKVLTDSGSLDSTIPGIENTITVTTEQLTTASFPVGSKKNKGDSHLNVQVSNFKSGKGDSTLQVSSGLNENLTVNGGGWNEKSVKLSSQISAGEEKWNSVSPASAGKRKTEPSAWSQDTGDANTNGKDWGRSWSDRSIFSGIGSTAEPVSQSTTSDYQWDVSRNQPYIDDEWSGLNGLSSADPNSDDNAPAEEWGNWVDEERASLLKSQEPIPDDQKVSDDDKEKGEGALPTGKSKKKKKKKKKQGEDNSTAQDTEELEKEIREDLPVNTSKTRPKQEKAFSLKTISTSDPAEVLVKNSQPIKTLPPATSTEPSVILSKSDSDKSSSQVPPILQETDKSKSNTKQNSVPPSQTKSETSWESPKQIKKKKKARRET [W394D]

Variants of: B1
Settings: with snd1_human SND1, Q7KZF4
Remark: another data set of the same source

Variant | effect of a mutation on the interaction
MAARSWQDELAQQAEEGSARLREMLSVGLGFLRTELGLDLGLEPKRYPGWVILVGTGALGLLLLFLLGYGWAAACAGARKKRRSPPRKREEAAAVPAAAPDDLALLKNLRSEEQKKKNRKKLSEKPKPNGRTVEVAEGEAVRTPQSVTAKQPPEIDKKNEKSKKNKKKSKSDAKAVQNSSRHDGKEVDEGAWETKISHREKRQQRKRDKVLTDSGSLDSTIPGIENTITVTTEQLTTASFPVGSKKNKGDSHLNVQVSNFKSGKGDSTLQVSSGLNENLTVNGGGWNEKSVKLSSQISAGEEKWNSVSPASAGKRKTEPSAWSQDTGDANTNGKDWGRSWSDRSIFSGIGSTAEPVSQSTTSDYQWDVSRNQPYIDDEWSGLNGLSSARPNSRDNAPAEEWGNWVDEERASLLKSQEPIPDDQKVSDDDKEKGEGALPTGKSKKKKKKKKKQGEDNSTAQDTEELEKEIREDLPVNTSKTRPKQEKAFSLKTISTSDPAEVLVKNSQPIKTLPPATSTEPSVILSKSDSDKSSSQVPPILQETDKSKSNTKQNSVPPSQTKSETSWESPKQIKKKKKARRET [D389R;D393R;W394D] | disrupting interaction strength
